Patent US20240158831A1 (PROMEGA, published 2024)

B1: OgLuc variant C1+A4E, HQHQHQ N-terminally tagged (enzyme)
chain: HQHQHQMVFTLEDFVGDWRQTAGYNQDQVLEQGGLSSLFQKLGVSVTPIQKIVLSGENGLKFDIHVIIPYEGLSGFQMGLIEMIFKVVYPVDDHHFKIILHYGTLVIDGVTPNMIDYFGRPYEGIAVFDGKKITVTGTLWNGNKIIDERLINPDGSLLFRVTINGVTGWRLCERILA
notes: Purified from E. coli KRX with the HISLINK system
B2: OgLuc variant 9B8, HQHQHQ N-terminally tagged (enzyme)
chain: HQHQHQMVFTLEDFVGDWRQTAGYNLDQVLEQGGLSSLFQKLGVSVTPIQKIVLSGENGLKIDIHVIIPYEGLSGYQMGQIEKIFKVVYPVDDHHFKVILHYGTLVIDGVTPNMIDYFGRPYEGIAVFDGKKITVTGTLWNGNKIIDERLINPDGSLLFRVTINGVTGWRLCERILA
notes: as for B1
B3: OgLuc variant L27V (9B8 opt+K33N+L27V+T39T+K43R+Y68D) (enzyme)
chain: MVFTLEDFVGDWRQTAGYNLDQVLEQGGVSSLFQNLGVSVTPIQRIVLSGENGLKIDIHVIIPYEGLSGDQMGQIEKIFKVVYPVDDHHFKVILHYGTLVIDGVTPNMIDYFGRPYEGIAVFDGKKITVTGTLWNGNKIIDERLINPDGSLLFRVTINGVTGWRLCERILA
notes: Expressed as a HaloTag fusion (pFN18A) in E. coli KRX and purified with the HaloTag Protein Purification System; It eluted as a 24 kDa protein

Target: the molecule itself
Experiment: gel filtration chromatography (Superdex 200 5/150 GL), self-association
From the text: Gel filtration analysis was used to verify the expected molecular weight of the purified OgLuc proteins based on the theoretical values and consequently to determine their oligomeric state. A comparison between the relative hydrodynamic volume of the OgLuc variants C1+A4E and 9B8 was made by gel filtration chromatography. For this analysis, the nucleotide sequence for the OgLuc variants, C1+A4E and 9B8, were cloned into a HQ-Tagged FLEXI® Vector (Promega Corp.) to create a HQHQHQ N-terminally tagged protein that was overexpressed in E. coli KRX cells. The overexpressed proteins were purified using the HISLINK™ Protein Purification System (Promega Corp.) according to manufacturer's instructions. Samples of each individual standard and sample protein were analyzed by gel filtration chromatography, which was performed at 24° C. on an Agilent 1200 HPLC, using a Superdex 200 5/150 GL column (GE Healthcare) with a flow rate of 0.25 mL/min (FIGS. 43A-B). The mobile phase (i.e., running buffer) consisted of 50 mM Tris and 150 mM NaCl, pH 7.5. Protein elution was monitored at 214 and 280 nm. A standard calibration curve was generated using: 1) Ovalbumin, 43 kDa (GE Healthcare), 2) Carbonic Anhydrase, 29 kDa (Sigma) and 3) Myoglobin, 17 kDa (Horse Heart, Sigma). The molecular weights of the purified proteins were calculated directly from the calibration curve.
The relative hydrodynamic volume of the L27V variant was made by gel filtration chromatography. For this analysis, the nucleotide sequence for the L27V variant was cloned into a HaloTag® vector pFN18A (Promega Corp.) to create a HaloTag®-terminally tagged protein that was overexpressed in E. coli KRX cells (Promega Corp.). The overexpressed protein was purified using the HaloTag® Protein Purification System (Promega Corp.) according to manufacturer's instructions. Samples of each individual standard and sample protein were analyzed by gel filtration chromatography performed at 24° C. on an Agilent 1200 HPLC using a Superdex 200 5/150 GL column (GE Healthcare) with a flow rate of 0.25 mL/min (FIG. 56).

Row | Protein | binding result
1 | B1 | binds
2 | B2 | no binding
3 | B3 | no binding
